Results reported in the domain aggregation screens of Martell et al. (2025).

Test: soluble fraction after stress (log2 fold change); higher = more stays soluble; pooled small domains, quantitative proteomics
Settings: stress: 75 degC
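Further: 20 min heating vs room temperature control held 20 min.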

Question: For “HMELLSGTVEKVLTSGVLVKLPGGAIGFIPNSEMGTPRGTNHGKMFPAGTPLQVMVVEVNQDRGRITLSR”, which “soluble fraction (log2)” value is on record?
Answer: -1.69

Question: With “HMELLTNPLTGREVEVLTLMALGQTNHEIARQLYLATGTVKAHTSSIYRKLDVANRTEAVARARQLGIL” as the sequence, how does the “soluble fraction (log2)” value read?
Answer: -2.32

Question: Which “soluble fraction (log2)” value does the source give for “HMELLTYREMDVLNLLDQRLTNKEIAHALGISTETVRQHTVNLFRKLNVDNRRQAIVVARSLGYIGTPT” here?
Answer: -2.97

Question: With “HMELNESVLKALYEKFREMSGSKGFITEDEVIIQLEKENPDITPDQQAEIFKYLYDTPLQIY” as the sequence, how does the “soluble fraction (log2)” value read?
Answer: -0.268

Question: For “HMELNFEGFYRFVRDELNVDLNAYKEKQLKRRIATVMKSSGALTLEDYSRLIANDEVIRNKFLDYITI”, which “soluble fraction (log2)” value is on record?
Answer: -3.37

Question: Which “soluble fraction (log2)” value does the source give for “HMELPMGTQLPPERELAQQMQVSRAVVNGGLAELAQQGFLEVRPRQGTFVADYRRKGNLSTLIAIMEY” here?
Answer: 0.257

Question: Which “soluble fraction (log2)” value does the source give for “HMELPPLQPGQPIDGRVEQQIRAGYYVVSVRGRGYEFQLPESARPGDLLRMVYLNDHPRLTFALLRIDNAN” here?
Answer: -1.5

Question: Which “soluble fraction (log2)” value does the source give for “HMELPVAVPHTELSPEALRGVVESFVLREGTDYGERDVPFEAKVAQVIRQLERGEARIMFDPVTQSVQIVT” here?
Answer: 0.162

Question: For “HMELRSPMPGLIIEIPVSKGDIIKKDQSLIILEAMKMENVLTSPINGKIADIKVNVQDTVEKNNLLITFEN”, which “soluble fraction (log2)” value is on record?
Answer: -0.0769

Question: With “HMELSESLENYLVVIYEAHLRNEIARIKDMTASLSVKHTSAIDAIKKLEDLGIVNYEKRGFVKLTQSGIEK” as the sequence, how does the “soluble fraction (log2)” value read?
Answer: 0.00204

Question: Which “soluble fraction (log2)” value does the source give for “HMELSPAELGERLKVARETANVTQDAGAKAAGIARTTLVAIEKGQRSARIDELQTLSRRYGVSVNSLLRR” here?
Answer: -0.154

Question: With “HMELSSRQAMIVDIVRKYEPITSEQIADKLNLTRSALRPDLAVLTMIGILEARPRVGYFFTGK” as the sequence, how does the “soluble fraction (log2)” value read?
Answer: -1.91

Question: For “HMELSTQERIQILLEILNQREIISFSQTLRKKEGKKGVVVTFLASLELAKDGYVTLVQNKSDQIYLRSN”, which “soluble fraction (log2)” value is on record?
Answer: -0.803

Question: For “HMELTDSLTENAKKLYSVLTTEPRHIDDLSEEAKLSSADTLAALTELELYSLVALSEGKHYYK”, which “soluble fraction (log2)” value is on record?
Answer: -0.349

Question: With “HMELTKAELEVMQILWKLKKAFVGDILDRMVEPKPAYNTVSTVVRLLEKKGVVGHESFGKSHRYYPL” as the sequence, how does the “soluble fraction (log2)” value read?
Answer: -3.66

Question: For “HMELTVPDFTNMSLEDAINLAEKRDVRLEVTDSVFVKRLGRGFIYSQNPVAGSKVKKGRRILITINAIN”, which “soluble fraction (log2)” value is on record?
Answer: -3.63

Question: For “HMEMDPKELGRQVLAKRKEKGWSQEQLGKMAEISRNYVSQIERGEADSISIKIINRLAIALGVSPSDLGE”, which “soluble fraction (log2)” value is on record?
Answer: -0.292

Question: With “HMEMKHKNSQIFQAIKLKHMGFTPTQISEELRVSRTTINHWLTKAQLKDVKWEDIRENSADELVKLLFG” as the sequence, how does the “soluble fraction (log2)” value read?
Answer: -1.33

Question: With “HMEMNPLDIQNKAAELAQQWLQLPVGERQKQMAAVRTSNPNLHAMAKQKMEEMRSQAESQGRQSLSQP” as the sequence, how does the “soluble fraction (log2)” value read?
Answer: 0.324

Question: With “HMEMTDKEEELMRIFWNHGPMFVREIVELYPEPRPHFNTLSTFVRNLEQKGFVSHEAVGGSFRYYAV” as the sequence, how does the “soluble fraction (log2)” value read?
Answer: -1.45

Question: With “HMEMTEDEITKQFDAMEREAKKEIDTGADKRAFMYGVSRTAAGMAGKNPKYARFITDKAKEVIENIAKYK” as the sequence, how does the “soluble fraction (log2)” value read?
Answer: 0.298

Question: With “HMENAEALLKKLSGVLSDYEYKMLMLYADGKTPRRIAQETGQSAKSVSNALFRARTKLKELYEDQ” as the sequence, how does the “soluble fraction (log2)” value read?
Answer: -0.66

Question: For “HMENEIVMPVQINGKKRGDLTIARDADQASIQKAVLELDFVKAALNGGSPKKVIVVPQRIVNVV”, which “soluble fraction (log2)” value is on record?
Answer: 0.338

Question: For “HMENFKVFMKAVQEVSPVPVRFDEISSGAKGYYSNTEKEIVIQNGMSESQTMKTGIHEVTHAMLHDRDF”, which “soluble fraction (log2)” value is on record?
Answer: 0.234

Question: For “HMENFYGYEIINPEAKKFFITMGVNRYALEQWIKNKSEYGLIIVKSLYPFDPRLKLFLEKNRERIQNLIF”, which “soluble fraction (log2)” value is on record?
Answer: -0.526

Question: For “HMENKLIELTLSLDKSERLDKILTQELSHTRSVIQQWLKSGFVSVNGEIVKANYKAKDGDHVTIQIE”, which “soluble fraction (log2)” value is on record?
Answer: -0.594

Question: For “HMENKTGEVTVREDSALTLRQGPGTNYEKVGQAYRGDRVDVLEEQNGWYKVKTYDGKEAWASSSYISIV”, which “soluble fraction (log2)” value is on record?
Answer: 0.861

Question: Which “soluble fraction (log2)” value does the source give for “HMENMETSDIVARYSNMPGGIIEAFHEIVDRHGFLSQEAIIEAARGFGISVAEAYGVATFYSMFS” here?
Answer: -0.342

Question: With “HMENMRLILASNLRRIREERRLSLNKVSELTGVSKSMLGQIERGESNPTLQTVWKIANGLRVSLTDLTEVP” as the sequence, how does the “soluble fraction (log2)” value read?
Answer: -2.66

Question: Which “soluble fraction (log2)” value does the source give for “HMENRILLSEDSLKHLAQDIPIDIIEKLSVLKDQIYHRYDDFNSIVQGLLGGENYLKYKDNILSFVEQ” here?
Answer: 0.424

Question: For “HMENSMDTDWDVSGVDPSQYRLLFSTLGAIAGVKDVGLNPDGLKIIHTPEALPAIKQAFDANNLKLKMRTN”, which “soluble fraction (log2)” value is on record?
Answer: -0.0945

Question: For “HMENSPLTHREAEVMRLMSEGKSNRAISEHLVISEKTVKNHVSSILQKMSVDDRTQAVLQAIKNGWVD”, which “soluble fraction (log2)” value is on record?
Answer: 0.281

Question: With “HMENTGFKDKKGNYIFDGDIVKDILGNIMKVEFKHFKWQLIPLNKTAFNMPMVDWLDLETETLNAEIIGN” as the sequence, how does the “soluble fraction (log2)” value read?
Answer: -2.07

Question: With “HMENTIESLLKAKGFNDIIVTVSDKQVDVVVSDKEIADNKRAQIEDVIKRKTGLEASAITITPA” as the sequence, how does the “soluble fraction (log2)” value read?
Answer: 0.127

Question: Which “soluble fraction (log2)” value does the source give for “HMENVLFVNVLSMTVRELAEMMKIPVNKIIQDSFSKGIMMNPNQRLEYDNFAELAKKYGITVKI” here?
Answer: -1.24

Question: With “HMENVMLRNFAIQATEAGVIKLLEDQRTFVWGSNNKKFMTVPFDEHPYSAMAAFFKTDEGLEIYKSIEKKF” as the sequence, how does the “soluble fraction (log2)” value read?
Answer: -1.97

Question: With “HMENYQIETFVKFIEESTGEDGVAFEDLFQNFTSRPAVITMFLALLEALRRNSIRIFQKEEFSQILIYPK” as the sequence, how does the “soluble fraction (log2)” value read?
Answer: -0.0302

Question: With “HMENYTYKYATSANVNIREEPNTDSTILGKTLLNTEFQVVEDVDGWSKITTEAGYAYIKSEYLSDTE” as the sequence, how does the “soluble fraction (log2)” value read?
Answer: 0.502
